Test results published in paper PMC8304084, “A Concerted Action of UBA5 C-Terminal Unstructured Regions Is Important for Transfer of Activated UFM1 to UFC1” (International Journal of Molecular Sciences, 2021).

Columns and labels:
[1] = molecular target: Full length UBA5 (res. 1–404) C250K mutant stably conjugated to UFM1 (UniProt Q9GZZ9); test: ITC; UFC1 titrated to FL^1–404 and to FL^1–404 C250K~UFM1; 25 °C; 25 mM HEPES pH 7.5, 100 mM NaCl; one-site model
[2] = molecular target: Full length UBA5, residues 1–404 (human) (UniProt Q9GZZ9); test: as above
[3] = molecular target: Full length UFC1, residues 1–167 (UniProt Q9Y3C8); test: ITC; VP-ITC, 25 °C; UBA5 peptides (~400 µM) titrated into 20–25 µM binding partner; 25 mM HEPES pH 7.5, 100 mM NaCl; one-site model; a single profile for each interaction

Chain of UBA5 C-terminal regions R2 and R3, residues 359–404 (Q9GZZ9 other isoform, or with tags, fused parts or gaps): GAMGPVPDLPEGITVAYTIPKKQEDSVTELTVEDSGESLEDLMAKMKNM
Chain of Full length UBA5 (res. 1–404) C250K mutant stably conjugated to UFM1 (Q9GZZ9 whole entry C250K, chain 1 of 2, the tested form may be a part): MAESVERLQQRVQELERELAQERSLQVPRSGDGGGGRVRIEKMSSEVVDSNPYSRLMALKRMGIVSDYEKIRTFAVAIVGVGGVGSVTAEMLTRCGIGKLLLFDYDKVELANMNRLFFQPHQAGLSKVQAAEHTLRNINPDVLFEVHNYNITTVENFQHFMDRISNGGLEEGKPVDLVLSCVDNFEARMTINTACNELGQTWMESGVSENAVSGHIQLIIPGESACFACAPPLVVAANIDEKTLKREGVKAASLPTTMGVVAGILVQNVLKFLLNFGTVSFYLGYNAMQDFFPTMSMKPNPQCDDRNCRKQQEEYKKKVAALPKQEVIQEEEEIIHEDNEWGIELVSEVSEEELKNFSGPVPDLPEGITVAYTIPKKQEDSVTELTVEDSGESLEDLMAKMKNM
Chain of Full length UBA5 (res. 1–404) C250K mutant stably conjugated to UFM1 (P61960 other isoform, or with tags, fused parts or gaps C250K, chain 2 of 2, further chain): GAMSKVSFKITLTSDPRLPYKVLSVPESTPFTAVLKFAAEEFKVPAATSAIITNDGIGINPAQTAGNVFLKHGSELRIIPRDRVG
Chain of UBA5 C-terminal region R2, residues 359–376 (Q9GZZ9 other isoform, or with tags, fused parts or gaps): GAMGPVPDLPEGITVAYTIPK

| Ka [3] | Kd [3] | dH [3] | stoichiometry N [3] | Substance | also measured |
| --- | --- | --- | --- | --- | --- |
|  |  |  |  | Full length UFC1, residues 1–167 (from UniProt Q9Y3C8 1-167) (enzyme) | Ka [1]: 870000 M⁻¹; Kd [1]: 1200 nM; dH [1]: -8.21 kcal/mol; stoichiometry N [1]: 1.03; Ka [2]: 720000 M⁻¹; Kd [2]: 1400 nM; dH [2]: -7.62 kcal/mol; stoichiometry N [2]: 0.97 |
| 600000 M⁻¹ | 1600 nM | -7.78 kcal/mol | 1.03 | UBA5 C-terminal part with A371E mutant (res. 325–404) (from UniProt Q9GZZ9 325-404) (domain or fragment) |  |
| 540000 M⁻¹ | 1800 nM | -7.88 kcal/mol | 1.03 | UBA5 C-terminal part with A371T mutant (res. 325–404) (from UniProt Q9GZZ9 325-404) (domain or fragment) |  |
| 410000 M⁻¹ | 2400 nM | -7.04 kcal/mol | 1.03 | UBA5 C-terminal part, residues 325–404 (from UniProt Q9GZZ9 325-404) (domain or fragment) |  |
|  | > 50000 nM |  |  | UBA5 C-terminal region R2, residues 359–376 (from UniProt Q9GZZ9 359-376) (peptide) |  |
| 370000 M⁻¹ | 2700 nM | -8.08 kcal/mol | 0.97 | UBA5 C-terminal regions R2 and R3, residues 359–404 (from UniProt Q9GZZ9 359-404) (peptide) |  |
